# Reference: patent publication US20250215412A1 (NOVOZYMES A S, published 2025)
# Substitutions are numbered along the chain they refer to. Names and notes keep the numbering of the source.
# T1: Chryseobacterium sp-62563 deamidase polypeptide (second polypeptide, deamidase domain), wildtype (Chryseobacterium sp-62563)
# T1 sequence: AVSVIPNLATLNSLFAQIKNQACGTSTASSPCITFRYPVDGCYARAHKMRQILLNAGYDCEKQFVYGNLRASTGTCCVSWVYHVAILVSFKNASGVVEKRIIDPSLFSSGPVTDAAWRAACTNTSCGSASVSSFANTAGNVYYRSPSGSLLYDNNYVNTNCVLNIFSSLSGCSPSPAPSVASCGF
# B1: Chryseobacterium sp-62563 propeptide E52P (protein)
# chain: NQDPNLVAKESNETAMKDFGKTVPVGIEKEDGKFKISFMVTAQPYEIKDSKPNAAYISMIKTAVENETPIHVFLKANTNEIAKVDKATDDDIRYFKSVFTKEVKEENRK
# B2: Chryseobacterium sp-62563 propeptide F99R (protein)
# chain: B1 chain with P52E, F99R
# B3: Chryseobacterium sp-62563 propeptide V98R (protein)
# chain: B1 chain with P52E, V98R
# B4: Chryseobacterium sp-62563 propeptide F73D (protein)
# chain: B1 chain with P52E, F73D
# B5: Chryseobacterium sp-62563 propeptide T88P (protein)
# chain: B1 chain with P52E, T88P
# B6: Chryseobacterium sp-62563 propeptide V98T (protein)
# chain: B1 chain with P52E, V98T
# B7: Chryseobacterium sp-62563 propeptide V64L (protein)
# chain: B1 chain with P52E, V64L
# B8: Chryseobacterium sp-62563 propeptide P69W (protein)
# chain: B1 chain with P52E, P69W
# B9: Chryseobacterium sp-62563 propeptide V98N (protein)
# chain: B1 chain with P52E, V98N
# B10: Chryseobacterium sp-62563 propeptide V7P (protein)
# chain: B1 chain with V7P, P52E
# B11: Chryseobacterium sp-62563 propeptide F95D (protein)
# chain: B1 chain with P52E, F95D
# B12: Chryseobacterium sp-62563 propeptide F99I (protein)
# chain: B1 chain with P52E, F99I
# B13: Chryseobacterium sp-62563 propeptide Y94A (protein)
# chain: B1 chain with P52E, Y94A
# B14: Chryseobacterium sp-62563 propeptide V98M (protein)
# chain: B1 chain with P52E, V98M
# B15: Chryseobacterium sp-62563 propeptide Y94Q (protein)
# chain: B1 chain with P52E, Y94Q
# B16: Chryseobacterium sp-62563 propeptide R93P (protein)
# chain: B1 chain with P52E, R93P
# B17: Chryseobacterium sp-62563 propeptide P69D (protein)
# chain: B1 chain with P52E, P69D
# B18: Chryseobacterium sp-62563 propeptide E67P (protein)
# chain: B1 chain with P52E, E67P
# B19: Chryseobacterium sp-62563 propeptide F99P (protein)
# chain: B1 chain with P52E, F99P
# B20: Chryseobacterium sp-62563 propeptide P69Y (protein)
# chain: B1 chain with P52E, P69Y
# B21: Chryseobacterium sp-62563 propeptide F95G (protein)
# chain: B1 chain with P52E, F95G
# B22: Chryseobacterium sp-62563 propeptide F73T (protein)
# chain: B1 chain with P52E, F73T
# B23: Chryseobacterium sp-62563 propeptide F99L (protein)
# chain: B1 chain with P52E, F99L
# B24: Chryseobacterium sp-62563 propeptide V98S (protein)
# chain: B1 chain with P52E, V98S
# B25: Chryseobacterium sp-62563 propeptide L74S (protein)
# chain: B1 chain with P52E, L74S
# B26: Chryseobacterium sp-62563 propeptide V98P (protein)
# chain: B1 chain with P52E, V98P
# B27: Chryseobacterium sp-62563 propeptide A76P (protein)
# chain: B1 chain with P52E, A76P
# B28: Chryseobacterium sp-62563 propeptide F99Y (protein)
# chain: B1 chain with P52E, F99Y
# B29: Chryseobacterium sp-62563 propeptide Y94E (protein)
# chain: B1 chain with P52E, Y94E
# B30: Chryseobacterium sp-62563 propeptide Y94I (protein)
# chain: B1 chain with P52E, Y94I
# B31: Chryseobacterium sp-62563 propeptide D90P (protein)
# chain: B1 chain with P52E, D90P
# B32: Chryseobacterium sp-62563 propeptide F99D (protein)
# chain: B1 chain with P52E, F99D
# B33: Chryseobacterium sp-62563 propeptide P69L (protein)
# chain: B1 chain with P52E, P69L
# B34: Chryseobacterium sp-62563 propeptide F99Q (protein)
# chain: B1 chain with P52E, F99Q
# B35: Chryseobacterium sp-62563 propeptide F99V (protein)
# chain: B1 chain with P52E, F99V
# B36: Chryseobacterium sp-62563 propeptide Y45I (protein)
# chain: B1 chain with Y45I, P52E
# B37: Chryseobacterium sp-62563 propeptide F99H (protein)
# chain: B1 chain with P52E, F99H
# B38: Chryseobacterium sp-62563 propeptide F99W (protein)
# chain: B1 chain with P52E, F99W
# B39: Chryseobacterium sp-62563 propeptide V98Y (protein)
# chain: B1 chain with P52E, V98Y
# B40: Chryseobacterium sp-62563 propeptide V98K (protein)
# chain: B1 chain with P52E, V98K
# B41: Chryseobacterium sp-62563 propeptide Y94P (protein)
# chain: B1 chain with P52E, Y94P
# B42: Chryseobacterium sp-62563 propeptide K86G (protein)
# chain: B1 chain with P52E, K86G
# B43: Chryseobacterium sp-62563 propeptide Y45R (protein)
# chain: B1 chain with Y45R, P52E
# B44: Chryseobacterium sp-62563 propeptide Y45M (protein)
# chain: B1 chain with Y45M, P52E
# B45: Chryseobacterium sp-62563 propeptide V98Q (protein)
# chain: B1 chain with P52E, V98Q
# B46: Chryseobacterium sp-62563 propeptide F99K (protein)
# chain: B1 chain with P52E, F99K
# B47: Chryseobacterium sp-62563 propeptide Y94T (protein)
# chain: B1 chain with P52E, Y94T
# B48: Chryseobacterium sp-62563 propeptide F99C (protein)
# chain: B1 chain with P52E, F99C
# B49: Chryseobacterium sp-62563 propeptide P69G (protein)
# chain: B1 chain with P52E, P69G
# Target: T1, Chryseobacterium sp-62563 deamidase polypeptide (second polypeptide, deamidase domain), wildtype (Chryseobacterium sp-62563)
# Experiment: cell-based or functional assay
Leakage activity [%],Relative activity of maturated deamidase (% initial rate),NanoDSF thermal unfolding temperature [° C.],Binder
0,–,–,B1
0,76,–,B2
–,> 100,–,B3
2,31,–,B4
0,46,–,B5
–,70,–,B6
0,49,–,B7
0,> 100,–,B8
–,> 100,–,B9
0,–,–,B10
7,44,–,B11
–,33,–,B12
0,72,–,B13
–,41,–,B14
0,–,–,B15
4,> 100,–,B16
–,82,70.6,B17
2,53,–,B18
–,33,–,B19
0,> 100,–,B20
0,91,–,B21
0,42,–,B22
–,46,–,B23
–,98,–,B24
0,40,–,B25

Leakage activity [%],Relative activity of maturated deamidase (% initial rate),NanoDSF thermal unfolding temperature [° C.],Binder
2,> 100,–,B26
3,–,–,B27
–,85,–,B28
0,–,–,B29
0,60,–,B30
0,55,–,B31
9,69,–,B32
–,43,81.5,B33
4,48,–,B34
–,> 100,–,B35
–,> 100,76.4,B36
–,> 100,–,B37
–,81,–,B38
0,31,–,B39
–,> 100,–,B40
3,76,75.2,B41
0,34,–,B42
–,–,78.1,B43
–,40,79,B44
–,> 100,–,B45
4,> 100,75.4,B46
0,> 100,–,B47
0,52,–,B48
–,35,77,B49
